Source: US20150344570A1 (published 2015)

T1: FcγRIIa R (human, UniProt P12318 34-217)
T1 construct: extracellular domain; also called FcgRIIa R type; 2aR; not shown: His tag at the C terminus
T1 sequence (looked up): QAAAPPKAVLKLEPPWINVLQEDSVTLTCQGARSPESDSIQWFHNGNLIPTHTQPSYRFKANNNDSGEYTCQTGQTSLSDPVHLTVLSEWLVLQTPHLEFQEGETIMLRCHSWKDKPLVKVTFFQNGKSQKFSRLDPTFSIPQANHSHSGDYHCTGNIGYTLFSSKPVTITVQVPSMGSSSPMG

T2: FcγRIIb (human, UniProt P31994 43-217)
T2 construct: extracellular domain; also called FcgRIIb; 2b; not shown: His tag at the C terminus
T2 sequence (looked up): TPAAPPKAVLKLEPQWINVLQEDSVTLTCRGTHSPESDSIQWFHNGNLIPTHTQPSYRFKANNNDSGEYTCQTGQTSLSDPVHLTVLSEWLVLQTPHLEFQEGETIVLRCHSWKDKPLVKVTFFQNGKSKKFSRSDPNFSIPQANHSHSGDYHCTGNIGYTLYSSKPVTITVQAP

T3: FcγRIIb extracellular domain with C-terminal His tag (human, UniProt P31994 43-217)
T3 construct: extracellular domain; also called FcgRIIb; 2b; not shown: His tag at the C terminus
T3 sequence (looked up): T2 sequence (looked up)

B1: GpH7-A5/GpH7-B3 variant V266_04F/GpL16-k0 (antibody, human IgG1, kappa)
heavy 1: not shown
heavy 2: not shown
light: DIVMTQSPLSLPVTPGEPASISCQASESLVHSNRNTYLHWYLQKPGQSPQLLIYKVSNRFSGVPDRFSGSGSGTDFTLKISRVEAEDVGVYYCSQNTHVPPTFGQGTKVEIERTVAAPSVFIFPPSDEQLKSGTASVVCLLNNFYPREAKVQWKVDNALQSGNSQESVTEQDSKDSTYSLSSTLTLSKADYEKHKVYACEVTHQGLSSPVTKSFNRGEC
notes: Heterodimerized anti-glypican-3 IgG1; mutation in the GpH7-B3 chain only; also called He Ab
B2: GpH7-A5/GpH7-B3 variant V266_05P/GpL16-k0 (antibody, human IgG1, kappa)
heavy 1: not shown
heavy 2: not shown
light: B1 light
notes: as for B1
B3: GpH7-A5/GpH7-B3 variant V266_06M/GpL16-k0 (antibody, human IgG1, kappa)
heavy 1: not shown
heavy 2: not shown
light: B1 light
notes: as for B1
B4: GpH7-A5/GpH7-B3 variant V266_07I/GpL16-k0 (antibody, human IgG1, kappa)
heavy 1: not shown
heavy 2: not shown
light: B1 light
notes: as for B1
B5: GpH7-A5/GpH7-B3 variant V266_08L/GpL16-k0 (antibody, human IgG1, kappa)
heavy 1: not shown
heavy 2: not shown
light: B1 light
notes: as for B1
B6: GpH7-A5/GpH7-B3 variant V266_11K/GpL16-k0 (antibody, human IgG1, kappa)
heavy 1: not shown
heavy 2: not shown
light: B1 light
notes: as for B1
B7: GpH7-A5/GpH7-B3 variant Y300_10E/GpL16-k0 (antibody, human IgG1, kappa)
heavy 1: not shown
heavy 2: not shown
light: B1 light
notes: as for B1
B8: GpH7-A5/GpH7-B3 variant N325_01G/GpL16-k0 (antibody, human IgG1, kappa)
heavy 1: not shown
heavy 2: not shown
light: B1 light
notes: Heterodimerized IgG1 antibody; alteration in the GpH7-B3 chain only; also called He Ab
B9: GpH7-A5/GpH7-B3 variant A327_01G/GpL16-k0 (antibody, human IgG1, kappa)
heavy 1: not shown
heavy 2: not shown
light: B1 light
notes: as for B8
B10: GpH7-A5/GpH7-B3 variant A327_03V/GpL16-k0 (antibody, human IgG1, kappa)
heavy 1: not shown
heavy 2: not shown
light: B1 light
notes: as for B8
B11: GpH7-A5/GpH7-B3 variant A327_04F/GpL16-k0 (antibody, human IgG1, kappa)
heavy 1: not shown
heavy 2: not shown
light: B1 light
notes: as for B8
B12: GpH7-A5/GpH7-B3 variant A327_07I/GpL16-k0 (antibody, human IgG1, kappa)
heavy 1: not shown
heavy 2: not shown
light: B1 light
notes: as for B8
B13: GpH7-A5/GpH7-B3 variant A327_08L/GpL16-k0 (antibody, human IgG1, kappa)
heavy 1: not shown
heavy 2: not shown
light: B1 light
notes: as for B8
B14: GpH7-A5/GpH7-B3 variant A327_09D/GpL16-k0 (antibody, human IgG1, kappa)
heavy 1: not shown
heavy 2: not shown
light: B1 light
notes: as for B8
B15: GpH7-A5/GpH7-B3 variant A327_10E/GpL16-k0 (antibody, human IgG1, kappa)
heavy 1: not shown
heavy 2: not shown
light: B1 light
notes: as for B8
B16: GpH7-A5/GpH7-B3 variant A327_14T/GpL16-k0 (antibody, human IgG1, kappa)
heavy 1: not shown
heavy 2: not shown
light: B1 light
notes: as for B8
B17: GpH7-A5/GpH7-B3 variant A327_15Y/GpL16-k0 (antibody, human IgG1, kappa)
heavy 1: not shown
heavy 2: not shown
light: B1 light
notes: as for B8
B18: GpH7-A5/GpH7-B3 variant A327_16H/GpL16-k0 (antibody, human IgG1, kappa)
heavy 1: not shown
heavy 2: not shown
light: B1 light
notes: as for B8
B19: GpH7-A5/GpH7-B3 variant A327_18N/GpL16-k0 (antibody, human IgG1, kappa)
heavy 1: not shown
heavy 2: not shown
light: B1 light
notes: as for B8
B20: GpH7-A5/GpH7-B3 variant A327_20W/GpL16-k0 (antibody, human IgG1, kappa)
heavy 1: not shown
heavy 2: not shown
light: B1 light
notes: as for B8
B21: GpH7-A5/GpH7-B3 variant K326_03V/GpL16-k0 (antibody, human IgG1, kappa)
heavy 1: not shown
heavy 2: not shown
light: B1 light
notes: as for B8
B22: GpH7-A5/GpH7-B3 variant K326_04F/GpL16-k0 (antibody, human IgG1, kappa)
heavy 1: not shown
heavy 2: not shown
light: B1 light
notes: as for B8
B23: GpH7-A5/GpH7-B3 variant K326_06M/GpL16-k0 (antibody, human IgG1, kappa)
heavy 1: not shown
heavy 2: not shown
light: B1 light
notes: as for B8
B24: GpH7-A5/GpH7-B3 variant K326_07I/GpL16-k0 (antibody, human IgG1, kappa)
heavy 1: not shown
heavy 2: not shown
light: B1 light
notes: as for B8
B25: GpH7-A5/GpH7-B3 variant K326_08L/GpL16-k0 (antibody, human IgG1, kappa)
heavy 1: not shown
heavy 2: not shown
light: B1 light
notes: as for B8
B26: GpH7-A5/GpH7-B3 variant K326_09D/GpL16-k0 (antibody, human IgG1, kappa)
heavy 1: not shown
heavy 2: not shown
light: B1 light
notes: as for B8
B27: GpH7-A5/GpH7-B3 variant K326_10E/GpL16-k0 (antibody, human IgG1, kappa)
heavy 1: not shown
heavy 2: not shown
light: B1 light
notes: as for B8
B28: GpH7-A5/GpH7-B3 variant K326_15Y/GpL16-k0 (antibody, human IgG1, kappa)
heavy 1: not shown
heavy 2: not shown
light: B1 light
notes: as for B8
B29: GpH7-A5/GpH7-B3 variant K326_19Q/GpL16-k0 (antibody, human IgG1, kappa)
heavy 1: not shown
heavy 2: not shown
light: B1 light
notes: as for B8
B30: GpH7-A5/GpH7-B3 variant K326_20W/GpL16-k0 (antibody, human IgG1, kappa)
heavy 1: not shown
heavy 2: not shown
light: B1 light
notes: as for B8
B31: GpH7-A5/GpH7-B3 variant L328_01G/GpL16-k0 (antibody, human IgG1, kappa)
heavy 1: not shown
heavy 2: not shown
light: B1 light
notes: as for B8
B32: GpH7-A5/GpH7-B3 variant L328_02A/GpL16-k0 (antibody, human IgG1, kappa)
heavy 1: not shown
heavy 2: not shown
light: B1 light
notes: as for B8

molecular target: T1, FcγRIIa R; experiment: SPR, relative to GpH7-A5/GpH7-B3/GpL16-k0

| Binder | He/Con_2aR |
| --- | --- |
| B1 | 44.4 control = 100 |
| B2 | -2.9 control = 100 |
| B3 | 150 control = 100 |
| B4 | 120 control = 100 |
| B5 | 142 control = 100 |
| B6 | -5.6 control = 100 |
| B7 | 107 control = 100 |

molecular target: T2, FcγRIIb; experiment: SPR, relative to GpH7-A5/GpH7-B3/GpL16-k0

| Binder | He/Con_2b |
| --- | --- |
| B1 | 57.6 control = 100 |
| B2 | 0.4 control = 100 |
| B3 | 251 control = 100 |
| B4 | 152 control = 100 |
| B5 | 236 control = 100 |
| B6 | 1 control = 100 |
| B7 | 134 control = 100 |

molecular target: T4, FcγRIIIa extracellular domain with C-terminal His tag (human, UniProt P08637 17-208); experiment: SPR (Biacore); He/Con_3a divided by He/Con_2b (FcγRIIb)
T4 construct: extracellular domain; also called FcgRIIIa; 3a; not shown: His tag at the C terminus
T4 sequence (P08637 17-208): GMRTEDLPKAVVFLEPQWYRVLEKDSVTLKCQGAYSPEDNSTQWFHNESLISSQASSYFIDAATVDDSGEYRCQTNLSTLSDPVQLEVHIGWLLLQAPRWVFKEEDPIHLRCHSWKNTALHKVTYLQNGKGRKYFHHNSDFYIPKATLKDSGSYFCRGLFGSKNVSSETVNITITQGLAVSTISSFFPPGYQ

| Binder | He_3a/2b (IIIa/IIb) |
| --- | --- |
| B8 | 0.28 ratio |
| B9 | 0.63 ratio |
| B10 | 0.48 ratio |
| B11 | 0.72 ratio |
| B12 | 0.33 ratio |
| B13 | 0.67 ratio |
| B14 | 0.49 ratio |
| B15 | 0.49 ratio |
| B16 | 0.46 ratio |
| B17 | 0.77 ratio |
| B18 | 0.69 ratio |
| B19 | 0.54 ratio |
| B20 | 0.65 ratio |
| B21 | 0.7 ratio |
| B22 | 0.66 ratio |
| B23 | 0.7 ratio |
| B24 | 0.7 ratio |
| B25 | 0.65 ratio |
| B26 | 0.69 ratio |
| B27 | 0.62 ratio |
| B28 | 0.7 ratio |
| B29 | 0.76 ratio |
| B30 | 0.57 ratio |
| B31 | 0.56 ratio |
| B32 | 0.55 ratio |

molecular target: T1, FcγRIIa R; experiment: SPR; He/Con_2aR divided by He/Con_2b (FcγRIIa R over FcγRIIb)

| Binder | He_2aR/2b |
| --- | --- |
| B1 | 0.77 ratio |
| B2 | -8.33 ratio |
| B3 | 0.6 ratio |
| B4 | 0.79 ratio |
| B5 | 0.6 ratio |
| B6 | -5.55 ratio |
| B7 | 0.8 ratio |

molecular target: T3, FcγRIIb extracellular domain with …; experiment: SPR (Biacore), FcγR as analyte over captured antibody; GpH7-A5/GpH7-B3/GpL16-k0 = 100
Description: (§1) The heterodimerized antibodies He Abs in which one of the H chains was introduced with an alteration were assayed for their binding activities to each activating FcγR and inhibitory FcγR according to the method described in Example 4. […] The activating FcγRs in FIGS. 26, 27, 28, and 29 are FcγRIa, FcγRIIa (R), FcγRIIa (H), and FcγRIIIa, respectively.
(§2) Analysis of interaction between objective antibody and the FcγR was carried out using Biacore T100 (GE Healthcare). HBS-EP+ (GE Healthcare) was used as the running buffer, and the measurement temperature was set to 25° C. Chips produced by immobilizing the antigen peptide by the amine coupling method to a Series S Sencor Chip CM5 (GE Healthcare), or alternatively, chips produced by allowing preliminarily biotinylated antigen peptides to interact with and immobilize onto a Series S Sensor Chip SA (certified) (GE Healthcare) were used. Antibodies of interest were captured onto an antigen peptide-immobilized chip, and allowed to interact to each FcγR diluted with running buffer. To regenerate and repeatedly use the chip, the antibodies captured on the chip were washed off by reacting 10 mM glycine-HCl, pH 1.5.

| Binder | He/Con_2b |
| --- | --- |
| B8 | 101 % of control |
| B9 | 116 % of control |
| B10 | 94.7 % of control |
| B11 | 63.7 % of control |
| B12 | 127 % of control |
| B13 | 63.1 % of control |
| B14 | 172 % of control |
| B15 | 140 % of control |
| B16 | 89.4 % of control |
| B17 | 60.8 % of control |
| B18 | 63.5 % of control |
| B19 | 113 % of control |
| B20 | 78.8 % of control |
| B21 | 175 % of control |
| B22 | 155 % of control |
| B23 | 165 % of control |
| B24 | 199 % of control |
| B25 | 177 % of control |
| B26 | 193 % of control |
| B27 | 200 % of control |
| B28 | 159 % of control |
| B29 | 139 % of control |
| B30 | 148 % of control |
| B31 | 80.2 % of control |
| B32 | 144 % of control |

molecular target: T4, FcγRIIIa extracellular domain with …; experiment: as above
Description: as §1, §2

| Binder | He/Con_3a |
| --- | --- |
| B8 | 28 % of control |
| B9 | 72.4 % of control |
| B10 | 45.8 % of control |
| B11 | 46.2 % of control |
| B12 | 42.4 % of control |
| B13 | 42 % of control |
| B14 | 83.7 % of control |
| B15 | 68.6 % of control |
| B16 | 41.4 % of control |
| B17 | 46.8 % of control |
| B18 | 43.7 % of control |
| B19 | 61.1 % of control |
| B20 | 51.2 % of control |
| B21 | 122 % of control |
| B22 | 103 % of control |
| B23 | 115 % of control |
| B24 | 139 % of control |
| B25 | 114 % of control |
| B26 | 134 % of control |
| B27 | 124 % of control |
| B28 | 112 % of control |
| B29 | 106 % of control |
| B30 | 84.8 % of control |
| B31 | 44.9 % of control |
| B32 | 79.1 % of control |
